Data from PMC3274521, “Effects of a Non-Conservative Sequence on the Properties of β-glucuronidase from Aspergillus terreus Li-20” (PLoS ONE, 2012).

System: CC1(C)[C@@H](O[C@H]2O[C@H](C(=O)O)[C@@H](O)[C@H](O)[C@H]2O[C@@H]2O[C@H](C(=O)O)[C@@H](O)[C@H](O)[C@H]2O)CC[C@]2(C)[C@H]3C(=O)C=C4[C@@H]5C[C@@](C)(C(=O)O)CC[C@]5(C)CC[C@@]4(C)[C@]3(C)CC[C@@H]12
Assay: purified protein
Details: GL 0.375 to 4 mM, assay pH and temperature not stated for kinetics (optimum pH 6.6, 55 °C)

## AtGUS-E (AtGUS) (Aspergillus terreus NIH2624)
  Km: 12.9 mM
  Vmax: 1.84 µmol/min/mg
  kcat: 29 s⁻¹
  kcat/Km: 2240 M⁻¹ s⁻¹
